{
  "source": "patent US8916693B2",
  "about": "“Monoconjugated chitosans as delivery agents for small interfering nucleic acids” (Nektar Therapeutics, priority 2009, dated 2014)",
  "test": "PBS buffer hydrolysis of releasable monoPEGylated chitosan (HPLC, disappearance of starting material)",
  "type": "physicochemical",
  "settings": "25 mM PBS, pH 7.3; 2 mg in 1 mL",
  "method": "PBS buffer hydrolysis of releasable monoPEGylated (20 KDa) chitosan (10 KDa): To a solution of 25 mM PBS, pH 7.3, (1 mL) was added the monoPEGylated (20 KDa) chitosan (10 KDa) (2 mg). The solution was filtered through a 0.2 μm filter and analyzed for the disappearance of the PEGylated chitosan starting material on an HPLC system with a flow rate of 0.5 mL/min, gradient (A: 0.1M TEAA, B: 80% ACN and 20% 0.1M TEAA) 15% B 0-4 min, 50% B 8 min, and 58.2% B. The column used was a Zorbax 300SB-C3 3.0×150 mm, […], column.",
  "data": [
    {"substance": "Releasable monoPEGylated (20 KDa) Chitosan (10 KDa)", "values": [
      {"measurement": "calculated half-life (hydrolysis, disappearance of the PEGylated chitosan)", "value": 7.04, "unit": "h"}
    ]}
  ]
}
